Laboratory results: IntAct's records for PubMed 33986552

B1: Mannose-1-phosphate guanylyltransferase regulatory subunit alpha (Homo sapiens), Q96IJ6-1 (parent)
chain: MLKAVILIGGPQKGTRFRPLSFEVPKPLFPVAGVPMIQHHIEACAQVPGMQEILLIGFYQPDEPLTQFLEAAQQEFNLPVRYLQEFAPLGTGGGLYHFRDQILAGSPEAFFVLNADVCSDFPLSAMLEAHRRQRHPFLLLGTTANRTQSLNYGCIVENPQTHEVLHYVEKPSTFISDIINCGIYLFSPEALKPLRDVFQRNQQDGQLEDSPGLWPGAGTIRLEQDVFSALAGQGQIYVHLTDGIWSQIKSAGSALYASRLYLSRYQDTHPERLAKHTPGGPWIRGNVYIHPTAKVAPSAVLGPNVSIGKGVTVGEGVRLRESIVLHGATLQEHTCVLHSIVGWGSTVGRWARVEGTPSDPNPNDPRARMDSESLFKDGKLLPAITILGCRVRIPAEVLILNSIVLPHKELSRSFTNQIIL

Variants of: B1
Conditions: with GMPPB

effect of a mutation on the interaction | Variant
disrupting interaction | W350A;R352A
disrupting interaction | R318E
with no effect | E85K;Q247A
with no effect | E396R
